Experimental findings from patent US20230242602 are described below.

Where only a bound is given, the exact number is not on record here.

The test system of series [1] is ZFP-TF 65918.T2A.57890 (two co-expressed ZFPs) (synthetic construct). In words: cell_activity. The settings on record: htau mouse hippocampus, 3E9 VG per hemisphere.
Series [2] concerns ZFP-TF 73133 (R→Q variant anti-tau ZFP-KRAB) (synthetic construct). In words: cell_activity. The settings on record: up to, htau mouse hippocampus, AAV9 highest dose, 3 and 6 months.

For the substance “human MAPT gene target region (around TSS)”, the values for the activity (% reduction of human tau mRNA) in series [1] and in series [2] were greater than 50 and 93, respectively.
For mouse Mapt gene, the activity (% reduction of mouse tau mRNA) in series [1] was greater than 50.
